One test addresses T1, c-Src tyrosine kinase (Mus musculus, UniProt P05480, P80A).
T1 construct: Full length human c-Src gene was per amplified from the vector of pUSE human O-Src wild (Upstate Biotechnology); host or cells: sf9 insect cells co-infected with two recombinant baculoviruses
Nature of the test: tyrosine phosphorylation on co-expression with c-Src in insect cells, western blotting with phosphorylated tyrosine specific antibody. Type of test: cell-based, Spodoptera frugiperda. Particulars: glutathione bead purified, FIG. 2, FIG. 4. The text has this:
The results shown in FIG. 4 were obtained by co-expressing a fused protein GST-DDR2 CKD, a fused protein (GST-DDR1b CKD) of the GST and the human DDR1b cytosolic tyrosine kinase domain, a fused protein (GST-Akt1) of the GST and the full-length mouse Akt1 kinase and a fused protein (GST-CDK4) of the GST and the full-length human CDK4 kinase with the c-Src protein without GST tagging in insect cells, respectively; purifying the respective expressed product using glutathione beads; performing SDS-PAGE; and performing the western blotting test using a phosphorylated tyrosine specific antibody and coomassie staining.
The results shown in FIG. 4 have been obtained by co-expressing the full-length c-Src protein together with the fused proteins, GST-DDR2 CKD, GST-DDR1b CKD, GST-Akt1 and GST-CDK4, respectively; in sf9 cells, then performing a western blotting test on each purified GST tagged protein using a phosphorylated tyrosine specific antibody. The presence of a similar amount of each purified GST tagged protein was shown by CBB staining.
GST tagged kinase defective DDR2 cytosolic domain (GST-kd-DDR2-CKD) with intact three tyrosines in the activation loop or with various phenylalanine mutations described in the text were co-expressed with Src in sf9 cells. GST tagged proteins were purified and the same amount of proteins estimated by CBB staining was used for western blotting using P-tyro antibody.
Phospho-tyrosine specific antibody was purchased from Cell Signaling Inc, USA. Specific antibodies to human c-Src, human c-Fyn, and she were obtained from SantaCruz, USA. Samples were boiled for 2 min in 1× lameli sample buffer, and loaded in 10% SDS-PAGE. Proteins were transferred to Immobilon-P membrane (Millipore) and blacked by 10% skim milk in TBS for an hour. The membrane was immunoblotted with antibodies for 2 hours and subsequently washed with 1×TBS five times. Then it was incubated with HRP conjugated secondary antibodies for an hour and protein bands were detected using chemiluminescence kit (Amersham).

Another test has as its system sf9 cells. The experiment in a line: tyrosine phosphorylation by H2O2 processing of expressing insect cells, western blotting with phosphorylated tyrosine specific antibody. The test is classed as cell-based, Spodoptera frugoperda. The note with it: 200 μM H2O2 for half of an hour; FIG. 2, FIG. 5. The method, then:
The results shown in FIG. 5 were obtained by solely expressing the fused proteins, GST-DDR2 CKD, the GST-DDR1b CKD, the GST-CDK4 and the GST-CDK1, respectively, in insect cells; processing with 200 μM of H2O2 for half of an hour; purifying the respective expressed product using glutathione beads; performing the SDS-PAGE; and performing the western blotting test using an phosphorylated tyrosine specific antibody and coomassie staining.
The results shown in FIG. 5 have been obtained by solely expressing GST-DDR2 CKD, GST-DDR1b CKD, GST-CDK4 and GST-CDK1, respectively in sf9 cells; processing each expressed cells with H2O2 of 200 uM for half of an hour or not; and then purifying the GST tagged protein followed by a western blotting using a phosphorylated tyrosine specific antibody. The presence of a similar amount of each purified GST tagged protein was shown by CBB staining.
The recombinant baculoviruses having the GST-DDR2 CKD coding gene were transfected into sf9 insect cells, by setting MOU to 10 and the cells were cultured for 24 to 72 hours, to express the protein. […], at the concentration of 200 μM was added to the cultured cells. The cells were left for half of an hour, and collected. The collected cells were lysed and the GST-DDR2 CKD was purified from the expressed products, using the glutathione agarose bead column chromatography. The purified protein was subjected to an electrophoresis in 10% polyacrylamaid gel.
After completing the electrophoresis, the protein developed in the gel was transferred to nitrocellulose, and then subjected to a western blotting using a phosphorylated tyrosine specific antibody (Cell signaling Inc, USA), to measure the chemiluminescence signal using x-ray film. For the control, the chemical luminescence of the case without H2O2 processing was measured by the method as mentioned above.

B1: GST-CDK4: fused protein of the GST and the full-length human CDK4 kinase, control (protein)
chain: MATSRYEPVAEIGVGAYGTVYKARDPHSGHFVALKSVRVPNGGGGGGGLPISTVREVALLRRLEAFEHPNVVRLMDVCATSRTDREIKVTLVFEHVDQDLRTYLDKAPPPGLPAETIKDLMRQFLRGLDFLHANCIVHRDLKPENILVTSGGTVKLADFGLARIYSYQMALTPVVVTLWYRAPEVLLQSTYATPVDMWSVGCIFAEMFRRKPLFCGNSEADQLGKIFDLIGLPPEDDWPRDVSLPRGAFPPRGPRPVQSVVPEMEESGAQLLLEMLTFNPHKRISAFRALQHSYLHKDEGNPE
modifications: left off: a dimerising Fc or GST
notes: fused protein of the GST and the full-length human CDK4 kinase, control
Take B1: the “tyrosine phosphorylation induced by co-expression with c-Src” value with c-Src tyrosine kinase is “poorly induced or never induced”. Also, in the test on sf9 cells, the “tyrosine phosphorylation induced by H2O2 processing” value was “poorly induced or never induced”.

B2: GST-DDR1b CKD: fused protein of the GST and the human DDR1b cytosolic tyrosine kinase domain, control (protein)
chain: VLEEELTVHLSVPGDTILINNRPGPREPPPYQEPRPRGNPPHSAPCVPNGSALLLSNPAYRLLLATYARPPRGPGPPTPAWAKPTNTQAYSGDYMEPEKPGAPLLPPPPQNSVPHYAEADIVTLQGVTGGNTYAVPALPPGAVGDGPPRVDFPRSRLRFKEKLGEGQFGEVHLCEVDSPQDLVSLDFPLNVRKGHPLLVAVKILRPDATKNARNDFLKEVKIMSRLKDPNIIRLLGVCVQDDPLCMITDYMENGDLNQFLSAHQLEDKAAEGAPGDGQAAQGPTISYPMLLHVAAQIASGMRYLATLNFVHRDLATRNCLVGENFTIKIADFGMSRNLYAGDYYRVQGRAVLPIRWMAWECILMGKFTTASDVWAFGVTLWEVLMLCRAQPFGQLTDEQVIENAGEFFRDQGRQVYLSRPPACPQGLYELMLRCWSRESEQRPPFSQLHRFLAEDALNTV
modifications: left off: a dimerising Fc or GST
notes: fused protein of the GST and the human DDR1b cytosolic tyrosine kinase domain, control
Turning to B2, the “tyrosine phosphorylation induced by co-expression with c-Src” value with c-Src tyrosine kinase was “poorly induced or never induced”. In the test on sf9 cells, the “tyrosine phosphorylation induced by H2O2 processing” value was “poorly induced or never induced”.

B3: GST-Akt1: fused protein of the GST and the full-length mouse Akt1 kinase, control (protein)
chain: MNDVAIVKEGWLHKRGEYIKTWRPRYFLLKNDGTFIGYKERPQDVDQRESPLNNFSVAQCQLMKTERPRPNTFIIRCLQWTTVIERTFHVETPEEREEWATAIQTVADGLKRQEEETMDFRSGSPSDNSGAEEMEVSLAKPKHRVTMNEFEYLKLLGKGTFGKVILVKEKATGRYYAMKILKKEVIVAKDEVAHTLTENRVLQNSRHPFLTALKYSFQTHDRLCFVMEYANGGELFFHLSRERVFSEDRARFYGAEIVSALDYLHSEKNVVYRDLKLENLMLDKDGHIKITDFGLCKEGIKDGATMKTFCGTPEYLAPEVLEDNDYGRAVDWWGLGVVMYEMMCGRLPFYNQDHEKLFELILMEEIRFPRTLGPEAKSLLSGLLKKDPTQRLGGGSEDAKEIMQHRFFANIVWQDVYEKKLSPPFKPQVTSETDTRYFDEEFTAQMITITPPDQDDSMECVDSERRPHFPQFSYSASGTA
modifications: left off: a dimerising Fc or GST
notes: fused protein of the GST and the full-length mouse Akt1 kinase, control
For B3, the “tyrosine phosphorylation induced by co-expression with c-Src” value in the test with c-Src tyrosine kinase was “poorly induced or never induced”.

For the origin of these results see patent US20120270234A1, “DDR2 PROTEIN WITH ACTIVATED KINASE ACTIVITY AND PREPARATION METHOD THEREOF” (KOREA INSTITUTE OF SCIENCE AND TECHNOLOGY, priority 2003, published 2012).
